Data from patent publication US20200157194A1 (Regeneron, published 2020).
Residue numbers refer to the chain shown, from its start.

T1: recombinant human GREM1 (hGREM1-His; C-terminal 10His tagged, R&D, #5190-GR) (human, UniProt O60565 25-184, limits assumed)
T1 sequence: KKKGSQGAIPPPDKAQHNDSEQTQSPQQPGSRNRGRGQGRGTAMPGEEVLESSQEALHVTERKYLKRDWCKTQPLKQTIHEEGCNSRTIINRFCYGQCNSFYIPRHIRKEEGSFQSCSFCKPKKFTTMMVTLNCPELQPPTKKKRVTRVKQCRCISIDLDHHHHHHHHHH

T2: human GREM1 (hGREM1-His; SEQ ID NO: 595) (human, UniProt O60565 25-184)
T2 construct: also called biotin-hGREM1-His; recombinant human GREM1 protein
T2 sequence: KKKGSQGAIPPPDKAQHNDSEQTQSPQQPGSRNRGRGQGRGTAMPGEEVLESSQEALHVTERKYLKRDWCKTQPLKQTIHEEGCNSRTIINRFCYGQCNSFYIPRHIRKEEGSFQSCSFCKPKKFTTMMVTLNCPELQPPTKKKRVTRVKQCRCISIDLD

B1: H4H6236P (antibody, human IgG4, V domains shown)
VH: QVQLVQSGAEVKKPGASVKVSCKVSGYTLTELSMHWVRQAPGKGLEWMGGFDPEDGETIYAQKFQGRVTMTEDTSTETAYMELSSLRSEDTAVYYCATDDYDILTDYPYNMDVWGQGTTVTVSS
VL: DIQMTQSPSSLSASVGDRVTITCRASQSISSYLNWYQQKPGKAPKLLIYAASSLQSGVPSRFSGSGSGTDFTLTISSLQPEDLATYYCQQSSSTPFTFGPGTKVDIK
notes: H4H prefix = human IgG4 Fc
B2: H4H6232P (antibody, human IgG4, V domains shown)
VH: B1 VH with V68L, E77D, D106S
VL: DIQMTQSPSSLSASVGDRVTITCRASQSINNYLNWYQQKPGKAPKLLIYAASSLQSGVPSRFSGSGSGTDFTLTISSLQPEDFGTYYCQQSDSTPFTFGPGTKVDIK
notes: H4H prefix = human IgG4 Fc
B3: H4H6243P (antibody, human IgG4, V domains shown)
VH: B1 VH with G66D, E77D, A97V, D102E, T105P, D106E
VL: B2 VL with N30S, N31T, S76R, G84A, D92H, S93I
notes: H4H prefix = human IgG4 Fc
B4: H4H6233P (antibody, human IgG4, V domains shown)
VH: QVQLVESGGGVVQPGRSLRLSCAASGFTFSSYGMHWVRQAPGKGLEWVAVIWYDGSNYYYAASVKGRFTISRDNSENTLYLQMNRLRAEDTAVYYCAREGTGSTEDYFDYWGQGTLVTVSS
VL: EIVLTQSPATLSLSPGERATLSCRASQSVSSFLAWYQQKPGQAPRLLIYDASNRATGIPVRFSGSGSGTDFTLTISSLEPEDFAVYYCQQRSNWPPYTFGQGTKLEIK
notes: H4H prefix = human IgG4 Fc
B5: H4H2926N (antibody, human IgG4, V domains shown)
VH: EVQLVESGGGLVQTGRSLRLSCAASGFTFDDYAMNWVRQAPGKGLEWVSGISWNSGNIGYADSVKGRFTISRDNAKNSLYLQMNSLRAEDTALYYCVKYIGQQLVQDYFDYWGQGTLVTVSS
VL: DIQMTQSPSSLSASVGDRVTITCQASQDITNYLNWYQQRPGKAPKLLIYDAFNLERGVPSRFSGSGYGTYFTFTISSLQPEDIAIYYCQQYDNLPLTFGGGTKVEIE
notes: H4H prefix = human IgG4 Fc
B6: H4H2897N (antibody, human IgG4, V domains shown)
VH: QVQLVESGGGVVQPGRSLRLSCAASGFTFTNYGMHWVRQAPGKGLEWVAAISYDGTNKYYADSVKGRFTISRDDSKNTLCLQMNSLRAEDTAVYYCAKEGTGEGFSFDYWGQGTLVTVSS
VL: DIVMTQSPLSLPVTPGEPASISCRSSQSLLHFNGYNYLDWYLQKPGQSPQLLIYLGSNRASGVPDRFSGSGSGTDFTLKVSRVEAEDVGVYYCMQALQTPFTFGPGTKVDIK
notes: H4H prefix = human IgG4 Fc
B7: H4H2895N (antibody, human IgG4, V domains shown)
VH: EVQLVESGGGLVQPGGSLRLSCAASGFTVSSNYMSWVRQAPGKGLEWVSVIYSGGNTYYADSVKGRFTISRHNSKNTLYLQMNSLRAEDTAVYYCARDLGIKSDYWGQGTLVTVSS
VL: EIVLTQSPDFQSVTPKEKVTITCRASQSIGTTLHWYQQKPDQSPKLLIKYVSQSLSGVPSRFSGSGSGTDFTLTINSLEAEDAATYYCHQSSSLPWTFGQGTKVEIK
notes: H4H prefix = human IgG4 Fc

Assays:
[1] = molecular target: T1, recombinant human GREM1 (hGREM1-His; …); experiment: cell-based or functional assay
[2] = molecular target: T1, recombinant human GREM1 (hGREM1-His; …); experiment: cell-based or functional assay; remark: listed apart in the source
[3] = molecular target: T1, recombinant human GREM1 (hGREM1-His; …); experiment: BLI Octet, mAb captured, 100 nM GREM1;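 note: octet Red96 biolayer interferometry at 25 °C in pH 7.4 HEPES saline buffer, antibodies held on anti-human IgG Fc capture biosensors, then exposed to GREM1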
Procedure: Binding measurements were conducted using an Octet Red96 label-free biomolecular interaction instrument (ForteBio). All experiments were performed at 25° C. using plate agitation at 1000 rpm. Solutions were made in an aqueous buffer containing 10 mM HEPES, 150 mM NaCl, 3 mM EDTA 0.05% P20, 0.1 mg/mL BSA and adjusted to pH of 7.4 (HBST buffer).
Anti-Human IgG Fc Capture biosensors (ForteBio) were separately loaded with 50 μg/mL solutions of 24 different anti-GREM1 antibodies for 60 seconds. Following a 30 second wash, duplicate biosensors for each antibody were submerged into wells containing either 100 nM GREM1 solutions or 100 nM GREM1 solutions containing 5 μM of heparin, measuring association for 300 seconds.

[4] = molecular target: T1, recombinant human GREM1 (hGREM1-His; …); experiment: BLI Octet, mAb captured, 100 nM GREM1 + 5 uM heparin;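 note: octet Red96 biolayer interferometry at 25 °C, antibodies captured on anti-human IgG Fc biosensors, pH 7.4 HEPES buffer with 0.1 mg/mL BSA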
[5] = molecular target: T2, human GREM1 (hGREM1-His; SEQ ID NO: 595); experiment: SPR, Biacore T200, 25 C, mAb captured, hGREM1-His injected;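 note: Heparin-supplemented HBS-EP+ used as running buffer, association and dissociation phases followed, Kd computed as koff divided by kon and half-life derived from koff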
[6] = molecular target: T2, human GREM1 (hGREM1-His; SEQ ID NO: 595); experiment: SPR, Biacore T200, 37 C, mAb captured, hGREM1-His injected;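 note: HBS-EP running buffer containing heparin, association and dissociation phases tracked, KD computed as koff over kon and half-life derived from koff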
Procedure: Kinetic experiments were carried out using HBS-EP+heparin [10 mM HEPES, 150 mM NaCl, 3 mM EDTA, 0.05% (v/v) surfactant P20, 10 μg/ml heparin sodium salt, pH 7.4] as both the running buffer and the sample buffer. […] Antigen-antibody association was monitored for 150 seconds while dissociation in buffer was monitored for 420 seconds. Kinetic analysis was performed using Scrubber software version 2.0a or Biacore T200 evaluation software v1.0 to determine kₐ and kd values. KD and t_{1/2} were then calculated from the experimentally determined kₐ and kd values as KD=kd/kₐ and t_{1/2}=In(2)/kd.

[7] = molecular target: T1, recombinant human GREM1 (hGREM1-His; …); experiment: BLI Octet, mAb captured, 100 nM GREM1 without vs with 5 uM heparin;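 note: octet Red96 biolayer interferometry at 25 °C, antibodies captured on anti-human IgG Fc biosensors, association of GREM1 measured with versus without heparin in HEPES-buffered saline, pH 7.4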
[8] = molecular target: T2, human GREM1 (hGREM1-His; SEQ ID NO: 595); experiment: competition ELISA, biotin-hGREM1-His (100 pM) binding to coated hBMP4
Procedure: Data were analyzed using a sigmoidal dose-response model within Prism™ software. […] The absorbance values of the wells containing the highest concentration for each antibody were used to determine the percent maximum blocking.

| IC50 [M], inhibition of hGREM1-His, W-20-17/BRE-luc luciferase (100 pM hBMP4, 10 nM hGREM1-His) [1] | hGREM1-His Inhibition IC50, M; W-20-17 cell differentiation assay (alkaline phosphatase) [2] | Binding Signal with 30 sec Association [3] | Binding Signal with 300 sec Association [3] | Binding Signal with 30 sec Association [4] | Binding Signal with 300 sec Association [4] | Kd [5] | koff [5] | kon [5] | t1/2 [5] | Kd [6] | koff [6] | kon [6] | t1/2 [6] | Reduction in Signal from Heparin at 30 sec [7] | Reduction in Signal from Heparin at 300 sec [7] | % blocked at maximum Ab tested (20 nM) [8] | IC50 [8] | Binder |
| --- | --- | --- | --- | --- | --- | --- | --- | --- | --- | --- | --- | --- | --- | --- | --- | --- | --- | --- |
| 5.4e-10 M | 3.9 nM | 0.33 nm | 0.45 nm | 0.05 nm | 0.43 nm | 2.99 nM | 0.000125 s⁻¹ | 42000 M⁻¹ s⁻¹ | 92 min | 2.63 nM | 0.000245 s⁻¹ | 93000 M⁻¹ s⁻¹ | 47 min | 0.28 nm | 0.02 nm | 95% | < 0.025 nM | B1 |
| 7.8e-10 M | 4.5 nM | 0.33 nm | 0.48 nm | 0.06 nm | 0.46 nm | 1.25 nM | 9.6e-05 s⁻¹ | 76800 M⁻¹ s⁻¹ | 120 min | 1.73 nM | 0.000195 s⁻¹ | 113000 M⁻¹ s⁻¹ | 59 min | 0.27 nm | 0.02 nm | 93% | < 0.025 nM | B2 |
| 5.4e-10 M | 5.9 nM | 0.3 nm | 0.47 nm | 0 nm | 0.21 nm | 11.3 nM | 0.000178 s⁻¹ | 15800 M⁻¹ s⁻¹ | 65 min | 68.7 nM | 0.000484 s⁻¹ | 7050 M⁻¹ s⁻¹ | 24 min | 0.3 nm | 0.26 nm | 92% | < 0.025 nM | B3 |
| 4.1e-10 M | 23 nM | 0.19 nm | 0.47 nm | 0.08 nm | 0.41 nm | 1.88 nM | 0.000172 s⁻¹ | 91300 M⁻¹ s⁻¹ | 67 min | 3.26 nM | 0.000512 s⁻¹ | 157000 M⁻¹ s⁻¹ | 23 min | 0.11 nm | 0.06 nm | 66% | 0.69 nM | B4 |
| 1.2e-09 M | 13 nM | 0.23 nm | 0.49 nm | 0.07 nm | 0.42 nm | 5.52 nM | 0.000502 s⁻¹ | 91000 M⁻¹ s⁻¹ | 23 min | 11.1 nM | 0.0014 s⁻¹ | 126000 M⁻¹ s⁻¹ | 8 min | 0.16 nm | 0.07 nm | 93% | 0.052 nM | B5 |
| 4.5e-10 M | 18 nM | 0.2 nm | 0.68 nm | 0.01 nm | 0.26 nm | 148 nM | 0.00041 s⁻¹ | 2770 M⁻¹ s⁻¹ | 28 min | 28.8 nM | 0.00202 s⁻¹ | 70300 M⁻¹ s⁻¹ | 6 min | 0.19 nm | 0.42 nm | 73% | 0.042 nM | B6 |
| 5.8e-10 M | 1.9 nM | 0.15 nm | 0.5 nm | 0.22 nm | 0.54 nm | 0.778 nM | 0.000132 s⁻¹ | 170000 M⁻¹ s⁻¹ | 88 min | 1.23 nM | 0.000215 s⁻¹ | 175000 M⁻¹ s⁻¹ | 54 min | -0.07 nm | -0.04 nm | 94% | 0.036 nM | B7 |
